# Data reported in US20240199740A1 (Ablynx, published 2024).
# T1: recombinant human CD123 protein (R&D Systems, 301-R3/CF) (human, UniProt P26951 19-305)
# T1 construct: Bought recombinant His-tagged extracellular domain of human CD123; also called recombinant CD123; in house biotinylated-CD123 recombinant protein; not shown: His tag of the bought protein
# T1 sequence: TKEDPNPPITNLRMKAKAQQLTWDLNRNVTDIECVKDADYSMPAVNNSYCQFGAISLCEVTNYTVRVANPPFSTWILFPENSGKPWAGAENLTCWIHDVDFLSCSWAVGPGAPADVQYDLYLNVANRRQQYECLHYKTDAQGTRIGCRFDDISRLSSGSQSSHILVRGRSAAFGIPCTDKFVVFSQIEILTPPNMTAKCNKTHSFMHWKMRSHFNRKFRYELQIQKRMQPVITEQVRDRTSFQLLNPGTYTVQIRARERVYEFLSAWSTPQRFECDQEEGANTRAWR
# B1: T017000135 (bispecific antibody)
# chain: DVQLVESGGGLVQAGGPLRLSCAASGRTFSSYVMGWFRQAPGKEREFVAAIYWSNGKTQYTDSVKGRFTISGDNAKNTVYLQMNSLNPEDTAVYYCVADKDETGFRTLPIAYDYWGQGTLVTVSSGGGGSGGGGSGGGGSGGGGSGGGGSGGGGSGGGGSEVQLVESGGGLVQPGGSLRLSCVASGDVHKINFLGWYRQAPGKEREKVAHISIGDQTDYADSAKGRFTISRDESKNMVYLQMNSLKPEDTAVYFCRAFSRIYPYDYWGQGTLVTVSSGGGGSGGGGSGGGGSGGGGSGGGGSGGGGSGGGGSEVQLVESGGGLVQAGGSLRLSCAASGITSKINDMGWYRQTPGNYREWVASITATGTTNYRDSVKGRFTISRDNAKSTVYLQMNSLKPEDTTVYYCNTFPPISNFWGQGTLVTVSSA
# B2: T017000134 (bispecific antibody)
# chain: VQLVESGGGLVQAGGSLRLSCAASGITSKINDMGWYRQTPGNYREWVASITATGTTNYRDSVKGRFTISRDNAKSTVYLQMNSLKPEDTTVYYCNTFPPISNFWGQGTLVTVSSGGGGSGGGGSGGGGSGGGGSGGGGSGGGGSGGGGSEVQLVESGGGLVQPGGSLRLSCVASGDVHKINFLGWYRQAPGKEREKVAHISIGDQTDYADSAKGRFTISRDESKNMVYLQMNSLKPEDTAVYFCRAFSRIYPYDYWGQGTLVTVSSGGGGSGGGGSGGGGSGGGGSGGGGSGGGGSGGGGSEVQLVESGGGLVQAGGPLRLSCAASGRTFSSYVMGWFRQAPGKEREFVAAIYWSNGKTQYTDSVKGRFTISGDNAKNTVYLQMNSLNPEDTAVYYCVADKDETGFRTLPIAYDYWGQGTLVTVSSA
# B3: T017000128 (bispecific antibody)
# chain: DVQLVESGGGLVQPGGSLRLSCVASGDVHKINFLGWYRQAPGKEREKVAHISIGDQTDYADSAKGRFTISRDESKNMVYLQMNSLKPEDTAVYFCRAFSRIYPYDYWGQGTLVTVSSGGGGSGGGGSGGGGSGGGGSGGGGSGGGGSGGGGSEVQLVESGGGLVQAGGSLRLSCAASGITSKINDMGWYRQTPGNYREWVASITATGTTNYRDSVKGRFTISRDNAKSTVYLQMNSLKPEDTTVYYCNTFPPISNFWGQGTLVTVSSA
# B4: T017000114 (bispecific antibody)
# chain: EVQLVESGGGLVQAGGPLRLSCAASGRTFSSYVMGWFRQAPGKEREFVAAIYWSNGKTQYTDSVKGRFTISGDNAKNTVYLQMNSLNPEDTAVYYCVADKDETGFRTLPIAYDYWGQGTLVTVSSGGGGSGGGGSGGGGSGGGGSGGGGSGGGGSGGGGSEVQLVESGGGLVQAGGSLRLSCAASGITSKINDMGWYRQTPGNYREWVASITATGTTNYRDSVKGRFTISRDNAKSTVYLQMNSLKPEDTTVYYCNTFPPISNFWGQGTLVTVSSGGGGSGGGGSGGGGSGGGGSGGGGSGGGGSGGGGSEVQLVESGGGLVQPGGSLRLSCVASGDVHKINFLGWYRQAPGKEREKVAHISIGDQTDYADSAKGRFTISRDESKNMVYLQMNSLKPEDTAVYFCRAFSRIYPYDYWGQGTLVTVSS
# notes: Multispecific Nanobody polypeptide expressed in Pichia; also called A0110055F03-35GS-A0110056A10-35GS-T0170056G05-FLAG3-HIS6; not shown: C-terminal FLAG3-HIS6 tag
# Tests used:
# [1] = target: T2, human CD123 expressed on cells (human, UniProt P26951 19-378); assay: cell-based or functional assay
# [2] = target: T2, human CD123 expressed on cells; assay: cell-based or functional assay; remark: listed apart in the source
# [3] = target: T2, human CD123 expressed on cells; assay: cell-based or functional assay; remark: listed apart in the source
# [4] = target: T2, human CD123 expressed on cells; assay: cell-based or functional assay; remark: listed apart in the source
# [5] = target: human CD123 (human, UniProt P26951 19-378); assay: cell-based or functional assay
# [6] = target: cynomolgus TCR/CD3 expressed on cells (cynomolgus); assay: cell-based or functional assay
# [7] = target: T2, human CD123 expressed on cells; assay: cell-based or functional assay; remark: listed apart in the source
# [8] = target: T1, recombinant human CD123 protein (R&D …); assay: SPR (ProteOn XPR36), CD123 immobilized
# Experimental: Binding affinities for the CD123/TCR multispecific polypeptides were evaluated by means of an SPR based affinity determination on a ProteOn XPR36 instrument. […] The dissociation time of the 1000 nM sample was 15 min. Flow rate was 45 μl/min and ProteOn running buffer (PBS, pH 7.4, 0.005% Tween 20) was used as running buffer. Evaluation of the association/dissociation data was performed by fitting a 1:1 interaction model (Langmuir binding model).
binder,measurement,setting,value
B1,"% lysis, redirected human T cell mediated killing of MOLM-13 cells, flow cytometry, E:T 10:1",[1],33%
same,"EC50 (M), redirected human T cell mediated killing of MOLM-13 cells, flow cytometry, E:T 10:1",[1],1.1e-11 M
same,"% lysis, redirected human T cell mediated killing of KG1a cells, flow cytometry, E:T 10:1",[2],18%
same,"EC50 (M), redirected human T cell mediated killing of KG1a cells, flow cytometry, E:T 10:1",[2],5.1e-11 M
same,"EC50 (M), IFN-γ secretion by human T cells during killing of CD123 transfected adherent target cells",[3],2e-09 M
same,"EC50 (M), human IL-6 secretion during human T cell mediated killing of CD123 transfected adherent target cells",[4],5.9e-10 M
B2,"% lysis, redirected human T cell mediated killing of MOLM-13 cells, flow cytometry, E:T 10:1",[1],9%
same,"EC50 (M), redirected human T cell mediated killing of MOLM-13 cells, flow cytometry, E:T 10:1",[1],3e-10 M
B3,"% lysis, redirected cynomolgus T cell mediated killing of KG1a cells, flow cytometry, E:T 10:1",[5],32%
same,"% lysis, redirected human T cell mediated killing of KG1a cells, flow cytometry, E:T 10:1",[5],55%
same,"EC50 (M), redirected cynomolgus T cell mediated killing of KG1a cells, flow cytometry, E:T 10:1",[5],2.8e-10 M
same,"EC50 (M), redirected human T cell mediated killing of KG1a cells, flow cytometry, E:T 10:1",[5],3.1e-10 M
B4,"% lysis, redirected human T cell mediated killing of KG1a cells, flow cytometry, E:T 10:1",[2],7%
same,"EC50 (M), redirected human T cell mediated killing of KG1a cells, flow cytometry, E:T 10:1",[2],2.4e-10 M
same,"% lysis, redirected cyno T cell mediated killing of KG1a cells, flow cytometry",[6],7%
same,"EC50 (M), redirected cyno T cell mediated killing of KG1a cells, flow cytometry",[6],1.9e-10 M
same,"% lysis, killing of MOLM-13 cells by non-activated human T cells, E:T ratio 2:1",[7],10%
same,"% lysis, killing of MOLM-13 cells by non-activated human T cells, E:T ratio 8:1",[7],12%
same,"% lysis, killing of MOLM-13 cells by pre-activated human T cells, E:T ratio 1:2",[7],18%
same,"% lysis, killing of MOLM-13 cells by pre-activated human T cells, E:T ratio 2:1",[7],31%
same,"% lysis, killing of MOLM-13 cells by pre-activated human T cells, E:T ratio 8:1",[7],43%
same,"EC50 (M), killing of MOLM-13 cells by non-activated human T cells, E:T ratio 2:1",[7],1.9e-09 M
same,"EC50 (M), killing of MOLM-13 cells by non-activated human T cells, E:T ratio 8:1",[7],1.4e-09 M
same,"EC50 (M), killing of MOLM-13 cells by pre-activated human T cells, E:T ratio 1:2",[7],1e-09 M
same,"EC50 (M), killing of MOLM-13 cells by pre-activated human T cells, E:T ratio 2:1",[7],6.8e-10 M
same,"EC50 (M), killing of MOLM-13 cells by pre-activated human T cells, E:T ratio 8:1",[7],2.4e-10 M
same,Kd,[8],2.3 nM
same,koff,[8],0.00019 s⁻¹
same,kon,[8],84000 M⁻¹ s⁻¹
